From publication PMC3947560

Target: ETV1 (ER81) 249-477 (UniProt P50549 249-477)
Assay: EMSA

Sequence of ETV1 (ER81) 249-477 (P50549 249-477): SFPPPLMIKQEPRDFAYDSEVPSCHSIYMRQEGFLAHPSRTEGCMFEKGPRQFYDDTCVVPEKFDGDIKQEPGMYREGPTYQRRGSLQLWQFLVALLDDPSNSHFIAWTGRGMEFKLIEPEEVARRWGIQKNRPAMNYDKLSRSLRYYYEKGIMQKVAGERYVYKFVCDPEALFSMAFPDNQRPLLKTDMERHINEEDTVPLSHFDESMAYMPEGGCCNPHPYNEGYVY

B1: ETS8/9 (PSA enhancer) (dsDNA)
DNA 1: CTTTACAAACATCCTTGAAACAACAATCCAGAA
DNA 2: TTCTGGATTGTTGTTTCAAGGATGTTTGTAA
- binding result: binds
